Experimental data: PMC7698151, “Evidence for Pentapeptide-Dependent and Independent CheB Methylesterases” (International Journal of Molecular Sciences, 2020)

Biological target: T1, […] pentapeptide of the McpB (Aer2) chemoreceptor (Pseudomonas aeruginosa PAO1)
T1 construct: also called GWEEF; McpB pentapeptide; source: synthetic peptide (Biomedal S.L., Seville, Spain)
Assay: ITC
Conditions: both partners purified

B1: P. aeruginosa PAO1 CheB2 (PA0173) (enzyme)
chain: MPISVLVVDDSALIRSLLKEIIQADPELRLVGCAPDAFVARDLIKQHAPDVISLDVEMPRMDGLTFLDKLMKARPTPVLMISSLTERGSEATLRALELGAVDFIAKPRLGIAEGMQAYAEEIRAKLKTVARARLRRRAADAPAPPESAAPLLSTEKIIALGASTGGTEALKEVLLGLPAHSPGVVITQHMPPGFTRSFAERLDRLTRLSVSEARDGDRILPGHALVAPGDHHMEVQRSGANYVVRLNRQAQVNGHRPAVDVMFESLARCAGRNLLAGLLTGMGKDGARGLLAIRQAGGYTLAQDEATCVVYGMPREAVELGAAEDVLPLERIAAALLQQAARRGSGNRL
notes: source: E. coli BL21(DE3), purified (HisTrap HP)
Work on B1 yielded a Kd of 93 ± 15 µM.
